Results as given in the supplement of paper PMC7125110.
± gives the standard error. For some assays here: Fewer inactive variants are shown than the library holds.

B1: glmS ribozyme (parent)
chain: AUAAAAGCGCCAGAACUACAGAAAUGUAGUUGACGAGGAGGAGGUUUAUCGAAUUUUCGGCGGAUGCCUCCAAA

Assays:
Settings in all cases: with glucosamine-6-phosphate
[1] = variants of: B1; assay: kcat; higher = faster cleavage; RNA array
In short: (§1)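 Using a hybridised Cy3 probe at 37 °C, barcoded ribozyme variants transcribed in situ by E. coli RNA polymerase on sequenced MiSeq chips were monitored across tiles imaged over ~14 h. The flow contained glucosamine-6-phosphate from 40 μM to 10 mM in HEPES/KCl/Mg(OAc)2 buffer. Signals were normalised to baseline and to non-cleaving reference variants before per-tile medians were fit to one- or two-exponential decays to yield kobs. Weighted Michaelis–Menten fits across concentrations gave kcat and KM.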

[2] = variants of: B1; assay: KM; higher = weaker cofactor use; RNA array
In short: as §1

[3] = variants of: B1; assay: self-cleavage kobs at 40 uM GlcN6P; higher = faster cleavage; RNA array
In short: as §1

[4] = variants of: B1; assay: self-cleavage kobs at 160 uM GlcN6P; higher = faster cleavage; RNA array
In short: as §1

[5] = variants of: B1; assay: self-cleavage kobs at 640 uM GlcN6P; higher = faster cleavage; RNA array
In short: as §1

[6] = variants of: B1; assay: self-cleavage kobs at 2500 uM GlcN6P; higher = faster cleavage; RNA array
In short: as §1

[7] = variants of: B1; assay: self-cleavage kobs at 10000 uM GlcN6P; higher = faster cleavage; RNA array
In short: as §1

Row | Variant | kcat [1] [s⁻¹] | KM [2] [µM] | self-cleavage kobs at 40 uM GlcN6P [3] [s⁻¹] | self-cleavage kobs at 160 uM GlcN6P [4] [s⁻¹] | self-cleavage kobs at 640 uM GlcN6P [5] [s⁻¹] | self-cleavage kobs at 2500 uM GlcN6P [6] [s⁻¹] | self-cleavage kobs at 10000 uM GlcN6P [7] [s⁻¹]
1 | C16A A39G | 0.00326 ± 0.00026 | 2130 ± 240 | 6.75e-05 ± 1.4e-05 | 0.000212 ± 5.3e-05 | 0.000731 ± 0.00012 | 0.00177 ± 0.00034 | 0.00273 ± 0.00053
2 | G29U U57C | 6.81e-05 ± 7.7e-06 | 3360 ± 1100 | – | – | – | 2.73e-05 ± 7.7e-06 | 5.13e-05 ± 6.5e-06
3 | U45G U54G | 0.0116 ± 0.0048 | – | 0.000213 ± 3.6e-05 | 0.000252 ± 9.5e-05 | 0.00187 ± 0.00046 | 0.00436 ± 0.0015 | 0.0084 ± 0.0012
4 | C10A U65A | 1.06e-05 ± 3e-06 | – | – | – | – | – | –
5 | A15C G32A | 0.00227 ± 0.0006 | 3610 ± 1400 | 4.19e-05 ± 1.9e-05 | 9.83e-05 ± 3.7e-05 | 0.000293 ± 6.8e-05 | 0.0012 ± 0.00025 | 0.00157 ± 0.00034
6 | G7A A39U | 1.87e-05 ± 1.7e-06 | 2780 ± 970 | – | – | – | – | –
7 | A33C U45A | 0.000472 ± 1.3e-05 | 3500 ± 180 | – | – | 7.41e-05 ± 1.9e-05 | 0.000197 ± 2.9e-05 | 0.00035 ± 5.3e-05
8 | U31C G59A | 1.58e-05 ± 4.5e-06 | – | – | – | – | – | –
9 | U57G C71G | 2.02e-05 ± 3.8e-06 | – | – | – | – | – | –
10 | U57A A64U | < 1e-05 | – | < 1e-05 | – | – | – | < 1e-05
11 | U56C C70A | 1.36e-05 ± 2.7e-06 | – | – | – | – | – | –
12 | G13A A39U | 0.000349 ± 1.8e-05 | 2910 ± 270 | – | – | 6.49e-05 ± 8.9e-06 | 0.000153 ± 2e-05 | 0.000277 ± 3.4e-05
13 | G32U C58G | 0.00149 ± 0.00016 | 8790 ± 1300 | – | 3.01e-05 ± 9.4e-06 | 0.000102 ± 1.7e-05 | 0.000294 ± 7.3e-05 | 0.000802 ± 9.7e-05
14 | U55A A64C | 0.000188 ± 3.5e-05 | – | – | – | 2.82e-05 ± 1.2e-05 | 0.000144 ± 2.3e-05 | 0.000149 ± 1.3e-05
15 | U31G U69G | 5.43e-05 ± 8.8e-06 | – | – | 9.12e-05 ± 1.7e-05 | 5.73e-05 ± 1.2e-05 | 5.24e-05 ± 7.9e-06 | 4.43e-05 ± 1e-05
16 | U31C A53C | 0.00137 ± 0.00011 | 2260 ± 350 | – | 0.00011 ± 3.6e-05 | 0.00028 ± 8e-05 | 0.0007 ± 0.00011 | 0.00116 ± 0.0002
17 | G35A G43C | < 1e-05 | – | – | < 1e-05 | – | – | < 1e-05

Row | Variant | kcat [1] [s⁻¹] | KM [2] [µM] | self-cleavage kobs at 40 uM GlcN6P [3] [s⁻¹] | self-cleavage kobs at 160 uM GlcN6P [4] [s⁻¹] | self-cleavage kobs at 640 uM GlcN6P [5] [s⁻¹] | self-cleavage kobs at 2500 uM GlcN6P [6] [s⁻¹] | self-cleavage kobs at 10000 uM GlcN6P [7] [s⁻¹]
18 | G13U U55A | 0.00182 ± 0.00037 | 3540 ± 1200 | 3.28e-05 ± 7.2e-06 | 8.82e-05 ± 1.7e-05 | 0.000214 ± 4e-05 | 0.000853 ± 0.00015 | 0.00135 ± 0.00013
19 | A39C C67A | 0.00061 ± 0.00015 | 1790 ± 670 | 2.37e-05 ± 5.8e-06 | 5.89e-05 ± 7.1e-06 | 0.000144 ± 1.2e-05 | 0.000714 ± 0.00014 | 0.000522 ± 5e-05
20 | G59C U69G | 1.85e-05 ± 5.2e-06 | – | < 1e-05 | – | – | – | –
21 | U45C C70G | 0.00245 ± 0.00063 | – | – | 3.27e-05 ± 1.6e-05 | 8.88e-05 ± 3.7e-05 | 0.000381 ± 7.3e-05 | 0.001 ± 0.00025
22 | G13A G60U | < 1e-05 | – | – | – | – | – | < 1e-05
23 | G7A A14G | 9.79e-05 ± 3.9e-06 | 3550 ± 470 | – | – | – | 3.92e-05 ± 1.5e-05 | 7.23e-05 ± 6.8e-06
24 | A6G C11A | 2.52e-05 ± 7.7e-06 | – | – | – | – | – | –
25 | G40U U65G G66U | 3.4e-05 ± 4.8e-06 | – | < 1e-05 | – | – | – | 3.38e-05 ± 1.5e-05
26 | U45C C67G | 0.0224 ± 0.0058 | 5680 ± 1800 | 0.000175 ± 3.4e-05 | 0.000503 ± 0.00012 | 0.00339 ± 0.0011 | 0.00755 ± 0.0031 | 0.0141 ± 0.0026
27 | C50G C67A | 0.000178 ± 2.6e-05 | – | 9.53e-05 ± 1.2e-05 | 0.000153 ± 2e-05 | 0.000259 ± 3.2e-05 | 0.000183 ± 2.4e-05 | 0.000145 ± 1.9e-05
28 | A12G U65G C67A | 0.000136 ± 1.4e-05 | 3010 ± 610 | – | – | – | 6.02e-05 ± 1.2e-05 | 0.000108 ± 3.2e-05
29 | C16G G29A | 0.00419 ± 0.00058 | 1940 ± 370 | 9.85e-05 ± 1.6e-05 | 0.000295 ± 5.2e-05 | 0.00103 ± 0.00015 | 0.00212 ± 0.00039 | 0.00387 ± 0.00066
30 | A6U G41A | 1.73e-05 ± 2.5e-06 | – | < 1e-05 | < 1e-05 | < 1e-05 | – | –
31 | G40C A53G | 0.00206 ± 0.00018 | 2160 ± 310 | 4.19e-05 ± 1.7e-05 | 0.000126 ± 3e-05 | 0.000539 ± 0.00012 | 0.00115 ± 0.00032 | 0.00166 ± 0.00025
32 | G44U U54G | 0.000306 ± 2.6e-05 | 986 ± 200 | – | – | 0.000127 ± 2.2e-05 | 0.000226 ± 4.8e-05 | 0.00027 ± 5.1e-05
33 | U56A C68G | 7.31e-05 ± 8.9e-06 | – | – | 6.33e-05 ± 1.2e-05 | 0.00011 ± 1.5e-05 | 6.61e-05 ± 7.6e-06 | 6.94e-05 ± 7.3e-06
34 | C11U A15U | 0.000594 ± 3.8e-05 | 1540 ± 230 | – | 4.54e-05 ± 1.7e-05 | 0.000178 ± 2.4e-05 | 0.000375 ± 5.4e-05 | 0.000511 ± 4.5e-05
